# Laboratory results taken from publication PMC7790537 (PLoS ONE, 2021).
# Biological target: recombinant trimeric HA of A/New Caledonia/20/1999 (H1N1) (Influenza A virus A/New …, UniProt Q6WG00)
# Test: cell-based or functional assay
Binder,"HI activity, minimum HI concentration, NC20 virus [µg/mL]","NI activity, EC50 (NI-ELLA), NC20 virus [µg/mL]","NT activity, minimum virus-neutralizing concentration, NC20 virus [µg/mL]"
"F11 IgA1 polymer (antibody, V domains shown) VH: QVQLVQSGAEVKRPGSSVRVSCRTSGGSFTSFAISWVRQAPGQGLEWMGRITRILGVPNYAQKFQGRVTITADMPTTTAYLDLTNLRSEDTAVYYCARDSGTSHGDFDYWGQGTLVTVSS VL: EIVLTQSPVTLSLSPGERATLSCRASQNVINSLVWYQQKPGQAPRLLIYGASNRATGIPARFRGSGSGTDFTLTIDSLEPEDIAVYYCQQRGTWLWSFGQGTKVEIK",62.5,0.106,15.8
"F11 IgA2m2 polymer (antibody, V domains shown) VH: QVQLVQSGAEVKRPGSSVRVSCRTSGGSFTSFAISWVRQAPGQGLEWMGRITRILGVPNYAQKFQGRVTITADMPTTTAYLDLTNLRSEDTAVYYCARDSGTSHGDFDYWGQGTLVTVSS VL: EIVLTQSPVTLSLSPGERATLSCRASQNVINSLVWYQQKPGQAPRLLIYGASNRATGIPARFRGSGSGTDFTLTIDSLEPEDIAVYYCQQRGTWLWSFGQGTKVEIK",–,0.0162,5.57
"F11 IgA1 monomer (antibody, V domains shown) VH: QVQLVQSGAEVKRPGSSVRVSCRTSGGSFTSFAISWVRQAPGQGLEWMGRITRILGVPNYAQKFQGRVTITADMPTTTAYLDLTNLRSEDTAVYYCARDSGTSHGDFDYWGQGTLVTVSS VL: EIVLTQSPVTLSLSPGERATLSCRASQNVINSLVWYQQKPGQAPRLLIYGASNRATGIPARFRGSGSGTDFTLTIDSLEPEDIAVYYCQQRGTWLWSFGQGTKVEIK",62.5,0.148,28.1
"F11 IgA2m2 monomer (antibody, V domains shown) VH: QVQLVQSGAEVKRPGSSVRVSCRTSGGSFTSFAISWVRQAPGQGLEWMGRITRILGVPNYAQKFQGRVTITADMPTTTAYLDLTNLRSEDTAVYYCARDSGTSHGDFDYWGQGTLVTVSS VL: EIVLTQSPVTLSLSPGERATLSCRASQNVINSLVWYQQKPGQAPRLLIYGASNRATGIPARFRGSGSGTDFTLTIDSLEPEDIAVYYCQQRGTWLWSFGQGTKVEIK",31.3,0.0617,–
